Target: T1, human IL-1 type 1 receptor (IL-1R1) (human, UniProt P14778 18-336, limits assumed)
T1 construct: SPR reagent; also called IL-1RI; interleukin-1 type I receptor
T1 sequence (looked up): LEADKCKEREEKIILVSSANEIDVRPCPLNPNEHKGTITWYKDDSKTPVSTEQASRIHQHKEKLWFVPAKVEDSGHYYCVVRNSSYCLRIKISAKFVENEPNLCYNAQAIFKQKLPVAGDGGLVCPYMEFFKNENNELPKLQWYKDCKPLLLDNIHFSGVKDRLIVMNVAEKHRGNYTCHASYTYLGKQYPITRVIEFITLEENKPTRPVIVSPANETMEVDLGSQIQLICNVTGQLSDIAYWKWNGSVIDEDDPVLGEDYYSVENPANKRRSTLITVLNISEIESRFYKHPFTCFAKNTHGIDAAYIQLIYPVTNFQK
Test: surface plasmon resonance

Kd: 547 nM
koff: 0.00145 s⁻¹
kon: 2650 M⁻¹ s⁻¹
B1: rhIL-1α (recombinant human interleukin-1 alpha) (ligand, UniProt P01583 113-271, looked up)
chain: SAPFSFLSNVKYNFMRIIKYEFILNDALNQSIIRANDQYLTAAALHNLDEAVKFDMGAYKSSKDDAKITVILRISKTQLYVTAQDEDQPVLLKEMPEIPKTITGSETNLLFFWETHGTKNYFTSVAHPNLFIATKQDYWVCLAGGPPSITDFQILENQA
notes: also called rhlL-1α

Source: patent publication US20220339099A1 (published 2022)
